Columns and labels:
GST-TCP22 = GST-TCP22 (Arabidopsis thaliana, UniProt Q9C7G4 1-375); assay: competition; 20x/40x unlabelled mTBS against labelled TBS; 35 mM KCl, 15 mM HEPES pH 7.5, 0.4 mM EDTA, 6% glycerol, 50 ng/ul poly(dI-dC), 0.05 pmol probe, room temperature, 10 min; details: protein: recombinant; tags: GST (N-terminal, pET42a); chain copies: 2; blunt
GST-TCP20 = GST-TCP20 (Arabidopsis thaliana, UniProt Q9LSD5 1-314); assay: as above; details: protein: recombinant; tags: GST (N-terminal, pET42a); chain copies: 2; blunt
GST-TCP20, sequence (Q9LSD5 whole entry): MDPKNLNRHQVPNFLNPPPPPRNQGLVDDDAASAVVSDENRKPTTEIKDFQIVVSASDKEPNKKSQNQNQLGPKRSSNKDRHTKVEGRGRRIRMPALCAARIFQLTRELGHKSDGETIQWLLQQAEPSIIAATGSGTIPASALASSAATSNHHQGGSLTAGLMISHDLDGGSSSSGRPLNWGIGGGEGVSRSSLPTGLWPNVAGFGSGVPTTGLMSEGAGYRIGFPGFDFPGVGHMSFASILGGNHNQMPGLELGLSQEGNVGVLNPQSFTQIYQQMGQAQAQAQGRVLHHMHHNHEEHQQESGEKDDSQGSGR

GST-TCP22, sequence (Q9C7G4 whole entry): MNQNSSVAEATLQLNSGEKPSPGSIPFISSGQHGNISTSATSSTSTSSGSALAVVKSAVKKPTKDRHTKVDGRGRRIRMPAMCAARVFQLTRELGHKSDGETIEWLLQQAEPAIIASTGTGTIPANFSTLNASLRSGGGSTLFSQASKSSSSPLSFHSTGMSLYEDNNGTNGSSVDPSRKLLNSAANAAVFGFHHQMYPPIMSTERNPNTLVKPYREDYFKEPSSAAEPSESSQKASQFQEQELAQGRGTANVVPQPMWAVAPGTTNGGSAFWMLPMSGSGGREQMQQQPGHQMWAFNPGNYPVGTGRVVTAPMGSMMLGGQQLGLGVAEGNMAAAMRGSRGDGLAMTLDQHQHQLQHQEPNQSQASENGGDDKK

B1: mTBS 50-bp CCA1 promoter competitor (dsDNA)
DNA 1: GAGATTAACGATCTTAAGTATTGAAACATAGATCAAGATATTATAACGAA
DNA 2: TTCGTTATAATATCTTGATCTATGTTTCAATACTTAAGATCGTTAATCTC
binding result (GST-TCP22): no binding | binding result (GST-TCP20): no binding

— paper PMC5065627, “LWD–TCP complex activates the morning gene CCA1 in Arabidopsis”
